Laboratory results reported in the supplement of paper PMC9170038.

System: MS2 coat protein
Assay: apparent KD of MS2 coat protein; designed switch direction (-1 OFF switch, 1 ON switch): -1; higher = weaker reporter binding
Outline: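 Transcription of designed RNA switches on Illumina chips was done by stalled E. coli RNA polymerase. SNAP-549-labelled MS2 coat protein was then titrated in doubling steps from 0.7 or 1.5 nM to 3 µM, with steps of 0.8–1.5 h at the lowest and 10–20 min at the highest concentration. The per-design median over clusters of curve-fitted normalised fluorescence is reported as apparent KD.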

[1] = Eterna round: R95, input ligand: microRNA oligo, concentration not stated
[2] = input ligand: microRNA oligo, concentration not stated
[3] = Eterna round: R95, input ligand: FMN 200 uM
[4] = Eterna round: R95, input ligand: none

GCGCGAAGGUAGGAUAUCGACGGAUCUUCCGGCCGAGAAGGACCCACAUGAGGAUCACCCAUGUGGUGAUCCUG [eternacac ex6r4 sub10] (Eterna round: R97, puzzle: Exclusion 6)
apparent KD of MS2 coat protein (input ligand: FMN 200 uM): 17.5 nM | apparent KD of MS2 coat protein (input ligand: none): 16.5 nM

GUGUACGGAGGAUAUAUAUGGGCAGGCUGACCUGCAGCUUCACAUGAGGAUCACCCAUGUAGAAGGCUGUACAC [Mat - Exclusion 2 - Mod of Hyphema - D98] (puzzle: Exclusion 2)
apparent KD of MS2 coat protein [1]: 33.2 nM

GGAUUACAUGAGGAUCACCCAUGUGAGGAUAUCGAUGUCCAGUAAUACGUGCGGGACUCGAGAAGGCACUUGGA [salish99-ex1-70] (Eterna round: R96, puzzle: Exclusion 1)
apparent KD of MS2 coat protein (input ligand: FMN 200 uM): 432 nM | apparent KD of MS2 coat protein [2]: 80.7 nM | apparent KD of MS2 coat protein (input ligand: none): 96.3 nM

AUAUUGUGAGGAUAUGAACUUAGUAACGAAAGAUACUAAGUUCAGAAGGCACAUGAGGAUCACCCAUGUUUCUC [Long static hairpin v11] (Eterna round: R97, puzzle: Exclusion 4)
apparent KD of MS2 coat protein (input ligand: FMN 200 uM): 596 nM | apparent KD of MS2 coat protein (input ligand: none): 68.1 nM

UCAUCCGUAGGAUAUAAGAAACACAACAUGAGGAUCACCCAUGUGACCGUCAGUUAUUGCUUAGAAGGACGCGUAC [Eternabot (L1) Solution 70] (Eterna round: R97, puzzle: Exclusion 5)
apparent KD of MS2 coat protein (input ligand: FMN 200 uM): 131 nM | apparent KD of MS2 coat protein (input ligand: none): 91.2 nM

UAUUAGCAAGCAAGAUCCCACAUGAGGAUCACCCAUGUGCUCGUCUUAAGCCCAGAAUUACUGGGCGCUCGUCUUAU [Winner reversed engineered 22] (Eterna round: R97, puzzle: Sensor, turn-off variant 1)
apparent KD of MS2 coat protein (input ligand: FMN 200 uM): 30.3 nM | apparent KD of MS2 coat protein (input ligand: none): 28.4 nM

GUCGUGCGGCUUUGCUGUGCGAGUACAUGAGGAUCACCCAUGUAGGAUAUGGUACGCUUUGCGUGCCAGAAGGGCGUGCGUUGG [salish99_ExNG3_r04_007] (Eterna round: R96, puzzle: Exclusion NG 3)
apparent KD of MS2 coat protein (input ligand: FMN 200 uM): 38 nM | apparent KD of MS2 coat protein [2]: 28.6 nM | apparent KD of MS2 coat protein (input ligand: none): 35.4 nM

UGUUGUCGCGUAGGAUAUGUAUGAGGAUCACCCAUAAGAGUAUAUUUACCAUGAGGAUCACCCAUGUAGAAGGACGGGACAACU [pwkr exNG2 2xF5 1xFMN.12] (Eterna round: R96, puzzle: Exclusion NG 2)
apparent KD of MS2 coat protein (input ligand: FMN 200 uM): 232 nM | apparent KD of MS2 coat protein [2]: 75.6 nM | apparent KD of MS2 coat protein (input ligand: none): 127 nM

CAUGUUGACAGAGGAUAUGCAAUGUGAUUUAGGGUAGAAGGCUGAGACAUGAGGAUCACCCAUGUGGGUGCGUUCUAGCGACAA [Atmala] (Eterna round: R96, puzzle: Exclusion NG 1)
apparent KD of MS2 coat protein (input ligand: FMN 200 uM): 150 nM | apparent KD of MS2 coat protein [2]: 19.4 nM | apparent KD of MS2 coat protein (input ligand: none): 34 nM

UUUAUGUCAGGAUAUACAUGAGGAUCACCCAUGUAUACCUUAAGGUAUACAUGGGAAUGUAGAAGGGACCUCCU [Omei Ex3 Pseudoloop 8] (Eterna round: R97, puzzle: Exclusion 3)
apparent KD of MS2 coat protein (input ligand: FMN 200 uM): 26.6 nM | apparent KD of MS2 coat protein (input ligand: none): 46.7 nM

AGGGCUGCUCAGGAUAUCCGUAAAAGCCGAAAAGGAGAAGGGAGCACAUGAGGAUCACCCAUGUGAUCCUAAAA [Orbemaored] (puzzle: Exclusion 6)
apparent KD of MS2 coat protein [3]: 28 nM | apparent KD of MS2 coat protein [1]: 14.6 nM | apparent KD of MS2 coat protein [4]: 15.5 nM

AGAUGUAGAUACCGAUCCUACAUGAGGAUCACCCAUGUAGCUAGACGUGCACGCGUAGCUCGUCAGACUACCAGAAG [salish99_TOv1_r3_085] (Eterna round: R96, puzzle: Sensor v3, turn-off variant 1)
apparent KD of MS2 coat protein (input ligand: FMN 200 uM): 461 nM | apparent KD of MS2 coat protein [2]: 253 nM | apparent KD of MS2 coat protein (input ligand: none): 449 nM

GCAGACGUAGUGAGGAUAUGCUCUACCUCGGUAGAGCAGAAGGCACAUGAGGAUCACCCAUGUGAUUCUUCUGC [Omei Ex4B B10] (Eterna round: R97, puzzle: Brourd's mod of Exclusion 4)
apparent KD of MS2 coat protein (input ligand: FMN 200 uM): 324 nM | apparent KD of MS2 coat protein (input ligand: none): 47.2 nM

CAUACACAUGAGGAUCACCCAUGUGAGGAUAUGCGUACGUUGUCCGUAGGCGACGUGCGCAGAAGGCGCGAGGU [JL-ex1-3.16 Eli mod] (puzzle: Exclusion 1)
apparent KD of MS2 coat protein [1]: 28.4 nM

CCACGACAUGAGGAUCACCCAUGUGAGGAUAUGGCCUGUAAGGCGUGAGCUGAAUCAAUCAGAAGGCGCGUGGG [salish99_ex1_r4_057] (Eterna round: R97, puzzle: Exclusion 1)
apparent KD of MS2 coat protein (input ligand: FMN 200 uM): 92.4 nM | apparent KD of MS2 coat protein (input ligand: none): 50.6 nM

GGUGAGCUAGGAUAUGCUUUGGGCUCGCUUUCCUUCGAUUUACUUGAGGAUCACCCAAGUAGAAGGAGCUUGCC [salish99_ex2_r4_035] (Eterna round: R97, puzzle: Exclusion 2)
apparent KD of MS2 coat protein (input ligand: FMN 200 uM): 13.5 nM | apparent KD of MS2 coat protein (input ligand: none): 12.9 nM

AAACACGGAGGAUAUACAGGUUCAGGAAACCGAACCGGCUGACAUGAGGAUCACCCAUGUAGAAGGCCGAAAUA [EX2 A.23] (Eterna round: R97, puzzle: Exclusion 2)
apparent KD of MS2 coat protein (input ligand: FMN 200 uM): 19.5 nM | apparent KD of MS2 coat protein (input ligand: none): 20.9 nM

GCUCCAGGAGGAUAUGCAUUCGAAAACAUGAGGAUCACCCAUGUAGGUGUCCACGUGCGAGCAGAAGGCCUAAAAC [Riqu] (Eterna round: R97, puzzle: Exclusion 5)
apparent KD of MS2 coat protein (input ligand: FMN 200 uM): 286 nM | apparent KD of MS2 coat protein (input ligand: none): 646 nM

ACGUUGUCAGGAUAUCGUUAAUUUAGUUGUUUGUAUUAGUUCGAGAAGGGACAUGAGGAUCACCCAUGUUUGCA [Ex4 #31] (Eterna round: R97, puzzle: Exclusion 4)
apparent KD of MS2 coat protein (input ligand: FMN 200 uM): 32.7 nM | apparent KD of MS2 coat protein (input ligand: none): 26.3 nM

AAGCAGCGAGGAUAUGCUUGCGCGUGUCCUAGUUGAAAUAAACUUGAGGAUCACCCAAGUAGAAGGCGCAACCC [EX2 #42] (Eterna round: R97, puzzle: Exclusion 2)
apparent KD of MS2 coat protein (input ligand: FMN 200 uM): 197 nM | apparent KD of MS2 coat protein (input ligand: none): 41.9 nM

AGGUAACAUGAGGAUCACCCAUGUCAGGAUAUCAGUAAGAGGAGGAUAGAAUAGAGUAUGAGAAGGGACUAUAU [Excluse me! 23 - Jieux - Exclusion 1] (puzzle: Exclusion 1)
apparent KD of MS2 coat protein [3]: 48 nM | apparent KD of MS2 coat protein [1]: 40.7 nM | apparent KD of MS2 coat protein [4]: 47.8 nM

AUUUAAUUUAGCGAGAUCACAUGAGGAUCACCCAUGUAUAUAUAGGAUAUCAGCUCGUGUAGAGCUGAGAAGGAUAUAUACCGC [ExNG3/7-A3] (Eterna round: R96, puzzle: Exclusion NG 3)
apparent KD of MS2 coat protein (input ligand: FMN 200 uM): 108 nM | apparent KD of MS2 coat protein [2]: 72.5 nM | apparent KD of MS2 coat protein (input ligand: none): 88.1 nM

UUAUACGUUGAGGAUAUGUCAUUUAGUAUAGUUACAGAAGGCGAUACAUGAGGAUCACCCAUGUUUAUGGGCAU [Ex-6 Malc#2] (puzzle: Exclusion 6)
apparent KD of MS2 coat protein [1]: 166 nM

AUCAUGUCAGGAUAUGUGAUAUGGAUCUUCGGAUCAAGUUCACAGAAGGGACAUGAGGAUCACCCAUGUCGAAC [Ex4-3: 30] (puzzle: Exclusion 4)
apparent KD of MS2 coat protein [1]: 40.1 nM

UAUUACAAGCGAGAUCCUAACAUGAGGAUCACCCAUGUGCUCGUCUCAUAUAGGACUAUCACGAAAGUGAUAGUCCA [Level Boss var2-01] (puzzle: Sensor v3, turn-off variant 1)
apparent KD of MS2 coat protein [3]: 21.5 nM | apparent KD of MS2 coat protein [1]: 140 nM | apparent KD of MS2 coat protein [4]: 15.2 nM

GGUCCACAUGAGGAUCACCCAUGUUAGGAUAUCUCGUCCGAGCAGUUAUGGGCCGGGCAGAGAAGGAAUGUGAA [Orbibibi] (puzzle: Exclusion 1)
apparent KD of MS2 coat protein [1]: 25.7 nM
